# Assay results taken from paper PMC9230926.
# B1: UDP-glucose pyrophosphorylase (UGPase) (Hordeum vulgare) (protein)
# chain: MAAAAVAADSKIDGLRDAVAKLGEISENEKAGFISLVSRYLSGEAEQIEWSKIQTPTDEVVVPYDTLAPPPEDLDAMKALLDKLVVLKLNGGLGTTMGCTGPKSVIEVRNGFTFLDLIVIQIESLNKKYGCSVPLLLMNSFNTHDDTQKIVEKYSNSNIEIHTFNQSQYPRIVTEDFLPLPSKGQTGKDGWYPPGHGDVFPSLNNSGKLDTLLSQGKEYVFVANSDNLGAIVDIKILNHLIHNQNEYCMEVTPKTLADVKGGTLISYEGRVQLLEIAQVPDEHVDEFKSIEKFKIFNTNNLWVNLKAIKRLVDAEALKMEIIPNPKEVDGVKVLQLETAAGAAIRFFEKAIGINVPRSRFLPVKATSDLLLVQSDLYTLVDGYVIRNPARVKPSNPSIELGPEFKKVANFLARFKSIPSIVELDSLKVSGDVSFGSGVVLKGNVTIAAKAGVKLEIPDGAVLENKDINGPEDI
# Substrate: O=P(O)(O)OP(=O)(O)O
# Assay: purified protein
# Conditions: Mg2+ (MgPPi complex is the true substrate; free PPi inhibits)
protein,measurement,value
B1,Km,60 µM
